We go through one molecule from publication PMC8300624, “Prdx1 Interacts with ASK1 upon Exposure to H2O2 and Independently of a Scaffolding Protein” (Antioxidants, 2021).

Experiment [1] addresses T1, recombinant Prdx1 C173A (resolving cysteine mutant) (human, UniProt Q06830 1-199, C173A).
T1 construct: peroxiredoxin-1 (Prdx1) with C173A; purified by the same protocol as Prdx1 WT; source: E. coli BL21, purified (Phenyl Sepharose, SP Sepharose, Superdex 75)
T1 sequence (looked up): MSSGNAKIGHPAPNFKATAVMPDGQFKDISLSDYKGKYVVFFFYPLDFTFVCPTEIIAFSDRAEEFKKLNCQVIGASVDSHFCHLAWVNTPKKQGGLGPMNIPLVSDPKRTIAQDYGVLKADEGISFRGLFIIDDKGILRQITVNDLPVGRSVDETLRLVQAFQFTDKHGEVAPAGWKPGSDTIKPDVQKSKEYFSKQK
Description: BLI; Octet Red 96; His-tagged MBP-ASK1-TBD loaded on Ni2+-NTA sensors at 0.45 µM; Prdx as analyte at 1 µM or at different concentrations for kon and koff; 10 µM H2O2 (oxidizing condition); 25 mM Tris/HCl pH 7.4, 25 mM NaCl, 1% BSA, 0.05% Tween 20, 0.01 mM maltose; His-tagged MBP as reference; the paper takes the bond to be a mixed disulfide. The settings on record: both partners purified. Background: BLI is a label-free optical method that tracks binding on a fibre tip over time.

For experiment [2], the target named is T2, recombinant wild-type peroxiredoxin-1 (Prdx1 WT) (human, UniProt Q06830 1-199).
T2 construct: peroxiredoxin-1 (Prdx1); In the BLI the protein was pre-reduced with DTT, desalted and then met the sensor in 10 µM H2O2 or 10 µM DTT; also called pET17-Prdx1; source: E. coli BL21, purified (Phenyl Sepharose, SP Sepharose, Superdex 75)
T2 sequence (looked up): T1 sequence (looked up) with A173C
The experiment is described as above. The settings on record: both partners purified.

Changes are numbered by the printed parent chain.

B1: 6xHis-MBP-ASK1-TBD (thioredoxin-binding domain of ASK1 with N-terminal His tag and maltose binding protein) (domain or fragment)
chain: SRRTTVAYVINEASQGQLVVAESEALQSLREACETVGATLETLHFGKLDFGETTVLDRFYNADIAVVEMSDAFRQPSLFYHLGVRESFSMANNIILYCDTNSDSLQSLKEIICQKNTMCTGNYTFVPYMITPHNKVYCCDSSFMKGLTELMQPNFELLLGPICLPLVDRFIQLLKVAQASSSQYFRESILNDIRKARNLYTGKELAAELARIRQR
modifications: Limits are not given; 88-302 is the usual recombinant ASK1-TBD construct and spans the listed TBD cysteines 120-250. His6-MBP-TEV carrier omitted. Assayed with 10 uM H2O2 (oxidizing) or 10 uM DTT …
As for B1, in experiment [1], the koff stood at 0.00228 s⁻¹ and the kon came out at 7200 M⁻¹ s⁻¹. Moreover, in experiment [2], the koff stood at 0.0002 s⁻¹ and the association rate constant (kon) stood at 32700 M⁻¹ s⁻¹.

The term koff denotes the rate constant with which the complex falls apart. In general, kon refers to a measure of how fast the partners come together.
